The substances below were run against AAV8 capsid (native AAV8) (AAV8) (assay: cell-based or functional assay).

Q: For monoclonal antibody ADK9, which AAV8 Nab titer (neutralizing antibody titer of the antibody stock) is on record?
A: Its AAV8 Nab titer (neutralizing antibody titer of the antibody stock) is 5 titer 1:n.

Q: monoclonal antibody ADK8/9 was tested. Which AAV8 Nab titer (neutralizing antibody titer of the antibody stock) did it give?
A: The AAV8 Nab titer (neutralizing antibody titer of the antibody stock) was 2560 titer 1:n.

Q: For monoclonal neutralizing antibody ADK8, which AAV8 Nab titer (neutralizing antibody titer of the antibody stock) is on record?
A: The AAV8 Nab titer (neutralizing antibody titer of the antibody stock) was 2560 titer 1:n.

Source: patent US20190078119A1
